Data taken from publication PMC3607736, “HAD hydrolase function unveiled by substrate screening: enzymatic characterization of Arabidopsis thaliana subclass I phosphosugar phosphatase AtSgpp” (Planta, 2012).

Substrate: O=P(O)(O)OCC(O)CO
Assay: inorganic phosphate release (Ames), non-linear regression
Assay type: biochemical, Arabidopsis thaliana
Conditions: 20 mM Tris-HCl pH 7.0, 5 mM MgCl2, 32 °C, apparent Km, MBP fusion
Source text: inorganic phosphate release (Ames), non-linear regression on AtSgpp (MBP-AtSgpp, At2g38740)

B1: AtSgpp (MBP-AtSgpp, At2g38740) (Arabidopsis thaliana) (protein)
chain: MNGFSDLNPSESKPSLSQLAPLEAILFDVDGTLCDSDPIHLIAFQELLQEIGFNNGVPIDEKFFVENIAGKHNSEIALLLFPDDVSRGLKFCDEKEALYRKIVAEKIKPLDGLIKLTKWIEDRGLKRAAVTNAPKENAELMISKLGLTDFFQAVILGSECEFPKPHPGPYLKALEVLNVSKEHTLVFEDSISGIKAGVAAGMPVIGLTTGNPASLLMQAKPAFLIENYADPKLWAVLEELDNKS
notes: N-terminal MBP fusion (pMAL-c2X, Ile-Ser-Glu-Phe linker before Met1); E. coli TB1, amylose resin
Question: Which results are given for B1?
Answer: Km: (7.3 ± 0.2) × 10^−3 M; Vmax: 0.498 µmol/min; kcat: 23 ± 3 s⁻¹; kcat/Km: 3100 M⁻¹ s⁻¹
